Substitutions are numbered along the chain they refer to.
Columns and labels:
Dpo4 Y108W = biological target: T1, Dpo4 Y108W (Sulfolobus solfataricus, UniProt Q97W02 1-352, C31S;Y108W); assay: steady-state Trp fluorescence
T1 sequence: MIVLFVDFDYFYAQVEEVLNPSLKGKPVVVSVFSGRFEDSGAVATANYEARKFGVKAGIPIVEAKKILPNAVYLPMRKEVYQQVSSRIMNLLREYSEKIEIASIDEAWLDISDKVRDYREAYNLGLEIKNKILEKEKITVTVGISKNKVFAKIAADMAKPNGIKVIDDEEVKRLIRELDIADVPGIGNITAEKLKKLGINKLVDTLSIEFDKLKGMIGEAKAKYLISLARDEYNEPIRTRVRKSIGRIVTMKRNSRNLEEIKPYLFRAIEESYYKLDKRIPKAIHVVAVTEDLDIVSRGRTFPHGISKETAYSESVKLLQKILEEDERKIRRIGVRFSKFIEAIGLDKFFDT

Dpo4 Y108W-K329C-CPM = biological target: T2, Dpo4 Y108W-K329C-CPM (Sulfolobus solfataricus, UniProt Q97W02 1-352, C31S;Y108W;K329C); assay: stopped-flow FRET
T2 sequence: T1 sequence with K329C

Dpo4 Y274W = biological target: T3, Dpo4 Y274W (Sulfolobus solfataricus, UniProt Q97W02 1-352, C31S;Y274W); assay: steady-state Trp fluorescence
T3 sequence: T1 sequence with W108Y, Y274W

Measured: binding result

B1: DNAOH 21/30-mer (dsDNA)
DNA 1: CGAGCCGTCGCATCCTACCGC
DNA 2: GATGCTGCAGCGGTAGGATGCGACGGCTCG
binds: all assays above

— PMC3985488
